Residue numbers refer to the chain shown, from its start.
B1: P3-E4 CHI (antibody, human IgG1, kappa, V domains shown)
VH: QVQLQQPGAELVMPGAAVKLSCKASGYTFINYWMHWLKQRPGQGLEWIGEIDPSDGYTDYNQKFKGKATLTVDKSSSTAYMQLSSLTSEDSAVYYCAISLRGPITFGPFPYWGQGTLVTVSS
VL: DIVLTQSPASLAVSLGQRATISCRASESVSIHGTHLMHWYQQKPGQPPKLLIYAASNLESGVPARFSGSGSETDFTLNIHPVAEEDAATYFCQHSIEDPRTFGGGTKLEIKR
notes: chimeric
B2: P2-C8 CHI (antibody, human IgG1, kappa, V domains shown)
VH: EVQLQQSGPVLVKPGASVKMSCKVSGYTFTDYYMHWVKQSHGKSLEWIGLINPYNGVTSYNQKFKGKATLTVDKSSSTAYMELNSLTSEDSAVYYCARPPRAYGNYAGYWGQGTTLTVSS
VL: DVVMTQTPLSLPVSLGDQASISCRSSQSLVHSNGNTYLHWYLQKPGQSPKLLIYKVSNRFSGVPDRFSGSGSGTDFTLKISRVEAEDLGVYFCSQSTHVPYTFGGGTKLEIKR
notes: chimeric
B3: P3-D2 CHI (antibody, human IgG1, kappa, V domains shown)
VH: B2 VH with V24A, Y33F, N55S, V57G, S59T, N105D
VL: DVVMTQTPLSLPVSLGDQASISCRSSQSLVHSNGNTYLHWYLQKPGQSPKLLIYKVSNRFSGVPDRFSGSGSGTDFTLKISRVEAEDLGVYFCSQSTHVPLTFGTGTKLEIKR
notes: chimeric
B4: P1-C6 CHI (antibody, human IgG1, kappa, V domains shown)
VH: QVQLQQSGAELARPGASVKLSCKASGYTFTSYGITWVKRRTGQGLGWIGEIYPRSGNTYYNEKFKGKATLTADKSSSTAYMELRSLTSEDSAVYFCARAITTVVGDWYFDVWGTGTTVTVSS
VL: DIVLTQSPASLAMSLGKRATISCRASESVSLIGTNLIHWYQQKPGQPPKLLIHHASNLEAGVPARFSGSGSRTDFTLTIDPVEEDDVAIYYCLQSRKIRTFGGGTKLEIKR
notes: chimeric
B5: P2-B9 CHI (antibody, human IgG1, kappa, V domains shown)
VH: QVQLQQPGAELVKPGASVKLSCKASGYTFSSYWMHWVKQRPGQGLEWIGMIHPKSDSVNNNEKFKNKATLTVDKSSSTVYLQLSSLTSEDSAVYSCARGGDSGYSMDYWGQGTSVTVSS
VL: DIVLTQSPASLAVSLGQKATISCKASKKVTIFGSISALHWYQQKPGQPPKLIYNGAKLESGVSARFSDSGSQNRSPFGNQLSFTLTIDPVEADDAATYYCLQNKEVPYTFGGGTKLEIKR
notes: chimeric
B6: M81 CHI (antibody, human IgG1, kappa, V domains shown)
VH: EFQLQQSGPELVKPGASVKISCKASGYSFTDHNMNWVKQSNGKSLEWIGVMNPKFGTINYNQKFKDKATLTVDQSSSTAYMQLNSLTSEDSAVYYCVRDDYPNYFDYWGQGTTLTVSS
VL: QIVLTQSPAIMSASPGEKVTISCSASSSVNYMYWYQQKPGSSPKSWIYRTSNLASGVSARFSGSGSGTSYSLTISSMEAEDAATYYCQQYHDYPPTFGGGTKLEIKR
notes: chimeric, murine variable regions on human IgG1/kappa; also called M81CH1
B7: M146 CHI (antibody, human IgG1, kappa, V domains shown)
VH: EFQLQQSGPELVKPGASVKISCKASGYSFTDYNMNWVKQSNGKSLEWIGLINPKYGTTNYNQKFKGKATLTVDQSSSTAYMQLNSLTSEDSAVYYCAIDDYPAWFAYWGQGTLVTVSA
VL: B6 VL with V29L, S58P, D92S, G99A, I105L
notes: chimeric
B8: P3-C7 L2H1 (antibody, human IgG1, kappa, V domains shown)
VH: EVQLVQSGAEVKKPGASVKVSCKASGYTFTDHYIHWVRQAPGQGLEWMGVINPYNDGATYNQKFKGRVTMTVDKSTSTVYMELSSLRSEDTAVYYCARPPRAYGNYAGYWGQGTTVTVSS
VL: DVVMTQTPLSLPVTPGEPASISCRSSQSLVHSNGNTYLHWYLQKPGQSPQLLIYKVSNRFSGVPDRFSGSGSRTDFTLKISRVEAEDVGVYYCSQSTHVPYTFGGGTKVEIKR
notes: hP3-C7 H1 + L2
B9: P3-C7 CHI (antibody, human IgG1, kappa, V domains shown)
VH: B2 VH with V12L, V24A, Y32H, M34I, Q39L, L50V, G56D, V57G, T58A, S59T
VL: B3 VL with S68I, G73R, L101Y, T105G, K108R
notes: chimeric; also called P3-C7 CH1
B10: P3-C7 L4H1 (antibody, human IgG1, kappa, V domains shown)
VH: B8 VH
VL: B8 VL with N33S
notes: hP3-C7 H1 + L4
B11: P3-C7 L3H1 (antibody, human IgG1, kappa, V domains shown)
VH: B8 VH
VL: B8 VL with N33Q
notes: hP3-C7 H1 + L3
B12: P3-C7 L1H1 (antibody, human IgG1, kappa, V domains shown)
VH: B8 VH
VL: B8 VL with V2I, R73G
notes: hP3-C7 H1 + L1
B13: P3-C7 L5H1 (antibody, human IgG1, kappa, V domains shown)
VH: B8 VH
VL: B8 VL with N33T
notes: hP3-C7 H1 + L5
B14: 81 L3H2 (antibody, human IgG1, kappa, V domains shown)
VH: EVQLVQSGAEVKKPGASVKVSCKASGYTFTDHNMNWVKQAPGQRLEWMGVMNPKFGTINYNQKFKDKATITRDTSASTAYMELSSLRSEDTAVYYCARDDYPNYFDYWGQGTTVTVSS
VL: DIQLTQSPSFLSASPGDRVTITCSASSSVNYMYWYQQKPGSSPKSWIYRTSNLASGVPSRFSGSGSGTEYTLTISSLQPEDFATYYCQQYHDYPPTFGGGTKVEIKR
notes: h81 H2 + h81 L3
B15: 81 L2H2 (antibody, human IgG1, kappa, V domains shown)
VH: B14 VH
VL: EIVLTQSPDFQSVTPGEKVTITCSASSSVNYMYWYQQKPDQSPKSWIYRTSNLASGVPSRFSGSGSGTDFTLTISSLEAEDAATYYCQQYHDYPPTFGGGTKVEIKR
notes: h81 H2 + h81 L2
B16: 81 L6H2 (antibody, human IgG1, kappa, V domains shown)
VH: B14 VH
VL: B14 VL with S51Q
notes: h81 H2 + h81 L6
B17: 81 L4H2 (antibody, human IgG1, kappa, V domains shown)
VH: B14 VH
VL: B14 VL with L53D
notes: h81 H2 + h81 L4
B18: M64 CHI (antibody, human IgG1, kappa, V domains shown)
VH: EVQLVESGGGLVKPGGSLKLSCAASGFTFSDYGMHWVRQAPEKGLEWVAYISSGSSTIYYADTVKGRFTISRDNAKNTLFLQMTSLRSEDTAMYYCARTRVYFYGSYWYFDVWGTGTTVTVSS
VL: QIVLTQSPAIMSASPGEKVTMTCSASSSVSYMYWYQQKSGTSPKRWIYDTSKLASGVPARFSGSGSGTSYSLTISSLEAEDAATYYCQQWSSDPPYTFGGGTKLEIKR
notes: chimeric

Target: T1, hGUCY2C ECD-His (human, UniProt P25092 24-430)
T1 construct: also called human GUCY2C protein
Test: SPR Biacore, antibody captured
Source text: To test the affinity of the GUCY2C monoclonal antibodies of the present disclosure for GUCY2C, in this test example, the instruments Biacore 8K and Biacore T200 were used to detect the ability of the antibodies to bind to hGUCY2C-ECD-His (SEQ ID NO: 3). The specific method is as follows: The antibody was affinity-captured using a Protein A biosensor chip conjugated with an anti-human antibody, then a solution containing GUCY2C Protein flowed on the surface of the chip, and reaction signals were detected in real time with an instrument to obtain association and dissociation curves. After dissociation was completed for each cycle, the biosensor chip was washed with 10 mM glycine-hydrochloric acid (pH 1.5) for regeneration. Data fitting was performed using a 1:1 model.

Binder | Kd [nM] | koff [s⁻¹] | kon [M⁻¹ s⁻¹]
B1 | 12.9 | 0.000228 | 17700
B2 | 5.12 | 0.000178 | 34900
B3 | 4.5 | 0.000173 | 38600
B4 | 2.57 | 0.000181 | 70700
B5 | 3.02 | 0.000175 | 58100
B6 | 0.27 | 5.9e-05 | 216000
B7 | 0.46 | 9.22e-05 | 203000
B8 | 5.35 | 0.000166 | 31000
B9 | 6.61 | 0.000149 | 22600
B10 | 73.4 | 0.00209 | 28500
B11 | 47.5 | 0.00135 | 28400
B12 | 6.55 | 0.000156 | 23700
B13 | 26.7 | 0.000719 | 26900
B14 | 0.41 | 0.000103 | 251000
B15 | 0.46 | 0.000127 | 274000
B16 | 0.47 | 0.000114 | 241000
B17 | 0.98 | 0.000207 | 212000
B18 | 20.4 | 0.000348 | 17100

From patent US20260028421A1 (JIANGSU HENGRUI PHARMACEUTICALS, published 2026)
